Reference: the Human Domainome abundance scans (Beltran et al. 2025)
± gives the uncertainty stated by the source.

B1: Telomeric repeat-binding factor 2, residues 489 to 542; numbered along this chain, Q15554 (parent)
chain: KQKWTVEESEWVKAGVQKYGEGNWAAISKNYPFVNRTAVMIKDRWRTMKRLGMN

Variants of: B1
Assay: abundance fitness (aPCA) (normalised: wild type 0, dead -1); higher = more abundant; growth selection in yeast, the domain comes from the species named
Details: Homo sapiens

K1E and K1C are within error of each other in abundance fitness: -0.323 ± 0.2 for the first, -0.578 ± 0.31 for the second.

Going from K1D to K1G, the abundance fitness falls from -0.17 ± 0.16 to -0.585 ± 0.23.

K1M and K1R are within error of each other in abundance fitness: -0.501 ± 0.15 for the first, -0.631 ± 0.16 for the second.

E10S and E10Q are within error of each other in abundance fitness: -0.311 ± 0.12 for the first, -0.177 ± 0.13 for the second.

Compared with E10T, E10I is lower in abundance fitness: -0.102 ± 0.097 for the first, -0.529 ± 0.17 for the second.

E10D and E10G are within error of each other in abundance fitness: -0.486 ± 0.25 for the first, -0.38 ± 0.095 for the second.

E10V and E10W are within error of each other in abundance fitness: -0.359 ± 0.12 for the first, -0.414 ± 0.11 for the second.

Going from E10K to E10M, the abundance fitness rises from -0.314 ± 0.095 to -0.055 ± 0.13.

Going from E10C to E10H, the abundance fitness rises from -0.277 ± 0.065 to 0.044 ± 0.16.

E10F and W11I are within error of each other in abundance fitness: -0.255 ± 0.14 for the first, -0.241 ± 0.18 for the second.

W11Y and W11P are within error of each other in abundance fitness: -0.191 ± 0.071 for the first, -0.327 ± 0.19 for the second.

First: W11M
Second: W11V
The abundance fitness of the first is higher: -0.111 ± 0.11 for the first, -0.47 ± 0.048 for the second.

Going from W11S to W11R, the abundance fitness falls from -0.321 ± 0.06 to -0.553 ± 0.083.

W11D and W11A are within error of each other in abundance fitness: -0.183 ± 0.13 for the first, -0.352 ± 0.095 for the second.

W11G and W11H are within error of each other in abundance fitness: -0.193 ± 0.057 for the first, -0.294 ± 0.16 for the second.

W11N and W11T are within error of each other in abundance fitness: -0.391 ± 0.2 for the first, -0.12 ± 0.11 for the second.

Going from W11F to V12H, the abundance fitness falls from -0.394 ± 0.13 to -1.02 ± 0.24.

V12K and V12G are within error of each other in abundance fitness: -0.626 ± 0.25 for the first, -0.495 ± 0.063 for the second.

V12M and V12A are within error of each other in abundance fitness: -0.132 ± 0.23 for the first, -0.423 ± 0.075 for the second.

Compared with V12E, V12N is lower in abundance fitness: -0.262 ± 0.089 for the first, -0.844 ± 0.32 for the second.

V12Q and V12F are within error of each other in abundance fitness: -0.895 ± 0.17 for the first, -0.75 ± 0.25 for the second.

V12C and V12P are within error of each other in abundance fitness: -0.362 ± 0.17 for the first, -0.325 ± 0.2 for the second.

First: K3A
Second: K3W
The abundance fitness of the first is higher: -0.098 ± 0.044 for the first, -0.33 ± 0.093 for the second.

Compared with K3M, K3I is lower in abundance fitness: 0.339 ± 0.11 for the first, -0.278 ± 0.33 for the second.

First: K3P
Second: K3C
The abundance fitness of the first is higher: -0.01 ± 0.058 for the first, -0.394 ± 0.14 for the second.

K3T and K3Q are within error of each other in abundance fitness: -0.052 ± 0.048 for the first, -0.245 ± 0.16 for the second.

K3E and K3F are within error of each other in abundance fitness: -0.175 ± 0.17 for the first, -0.258 ± 0.26 for the second.

Going from K3H to K3V, the abundance fitness rises from -0.519 ± 0.2 to -0.205 ± 0.094.

K3N and K3G are within error of each other in abundance fitness: -0.499 ± 0.45 for the first, -0.268 ± 0.056 for the second.

W4I and W4S are within error of each other in abundance fitness: -0.131 ± 0.1 for the first, -0.248 ± 0.098 for the second.

Compared with W4R, W4M is higher in abundance fitness: -0.747 ± 0.19 for the first, -0.27 ± 0.21 for the second.

W4V and W4A are within error of each other in abundance fitness: -0.61 ± 0.23 for the first, -0.804 ± 0.19 for the second.

W4C and W4D are within error of each other in abundance fitness: -0.599 ± 0.23 for the first, -0.171 ± 0.33 for the second.

W4T and W4G are within error of each other in abundance fitness: -0.258 ± 0.3 for the first, -0.637 ± 0.15 for the second.

W4K and W4Q are within error of each other in abundance fitness: -0.426 ± 0.38 for the first, -0.266 ± 0.17 for the second.

W4Y and W4L are within error of each other in abundance fitness: -0.325 ± 0.059 for the first, -0.41 ± 0.09 for the second.

W4F and W4E are within error of each other in abundance fitness: -0.023 ± 0.12 for the first, -0.126 ± 0.22 for the second.

W4H and W4P are within error of each other in abundance fitness: -0.391 ± 0.16 for the first, -0.216 ± 0.28 for the second.

T5E and T5S are within error of each other in abundance fitness: -0.272 ± 0.16 for the first, -0.105 ± 0.056 for the second.

T5Q and T5V are within error of each other in abundance fitness: -0.502 ± 0.2 for the first, -0.789 ± 0.11 for the second.

T5W and T5P are within error of each other in abundance fitness: -0.631 ± 0.26 for the first, -0.398 ± 0.19 for the second.

T5D showed an abundance fitness of -0.38 ± 0.14.
